Laboratory results: paper PMC11315935, “Multi-layered heterochromatin interaction as a switch for DIM2-mediated DNA methylation” (Nature Communications, 2024)

Test system: (CTA)12/(TAG)12 36-mer DNA duplex
Experiment: In vitro DNA methylation assay of DIM2 (WT or mutant)
Format: biochemical
Set-up: DNA methylation activity: unit not given here
Conditions: 30 min, pH 8.0; for DNA methylation activity of DIM2 (in words): 1.0 µM DIM2, 30 °C; for DNA methylation activity: Fig. 6d, H3_1-24K9me3 binding-associated mutants, 1.0 µM DIM2, 1.0 µM DNA duplex, 30 °C

Molecule	DNA methylation activity of DIM2 (in words)	DNA methylation activity (replicate 1)	DNA methylation activity (replicate 2)	DNA methylation activity (replicate 3)
DIM2W261A/W581A: DIM2 with W261A/W581A double mutation (protein, left off: His6, N-terminal, cleaved | MBP, N-terminal, cleaved, DIM2 with W261A/W581A double mutation) MDSPDRSHGGMFIDVPAETMGFQEDYLDMFASVLSQGLAKEGDYAHHQPLPAGKEECLEPIAVATTITPSPDDPQLQLQLELEQQFQTESGLNGVDPAPAPESEDEADLPDGFSDESPDDDFVVQRSKHITVDLPVSTLINPRSTFQRIDENDNLVPPPQSTPERVAVEDLLKAAKAAGKNKEDYIEFELHDFNFYVNYAYHPQEMRPIQLVATKVLHDKYYFDGVLKYGNTKHYVTGMQVLELPVGNYGASLHSVKGQIAVRSKHNAKKEIYYLLKKPAFEYQRYYQPFLWIADLGKHVVDYCTRMVERKREVTLGCFKSDFIQWASKAHGKSKAFQNWRAQHPSDDFRTSVAANIGYIWKEINGVAGAKRAAGDQLFRELMIVKPGQYFRQEVPPGPVVTEGDRTVAATIVTPYIKECFGHMILGKVLRLAGEDAEKEKEVKLAKRLKIENKNATKADTKDDMKNDTATESLPTPLRSLPVQVLEATPIESDIVSIVSSDLPPSENNPPPLTNGSVKPKAKANPKPKPSTQPLHAAHVKYLSQELVNKIKVGDVISTPRDDSSNTDTKWKPTDTDDHRAFGLVQRVHTAKTKSSGRGLNSKSFDVIWFYRPEDTPCCAMKYKWRNELFLSNHCTCQEGHHARVKGNEVLAVHPVDWFGTPESNKGEFFVRQLYESEQRRWITLQKDHLTCYHNQPPKPPTAPYKPGDTVLATLSPSDKFSDPYEVVEYFTQGEKETAFVRLRKLLRRRKVDRQDAPANELVYTEDLVDVRAERIVGKCIMRCFRPDERVPSPYDRGGTGNMFFITHRQDHGRCVPLDTLPPTLRQGFNPLGNLGKPKLRGMDLYCGGGNFGRGLEEGGVVEMRWANDIWDKAIHTYMANTPDPNKTNPFLGSVDDLLRLALEGKFSDNVPRPGEVDFIAAGSPCPGFSLLTQDKKVLNQVKNQSLVASFASFVDFYRPKYGVLENVSGIVQTFVNRKQDVLSQLFCALVGMGYQAQLILGDAWAHGAPQSRERVFLYFAAPGLPLPDPPLPSHSHYRVKNRNIGFLCNGESYVQRSFIPTAFKFVSAGEGTADLPKIGDGKPDACVRFPDHRLASGITPYIRAQYACIPTHPYGMNFIKAWNNGNGVMSKSDRDLFPSEGKTRTSDASVGWKRLNPKTLFPTVTTTSNPSDARMGPGLHWDEDRPYTVQEMRRAQGYLDEEVLVGRTTDQWKLVGNSVSRHMALAIGLKFREAWLGTLYD	largely abolished the DNA methylation activity	0.373	0.344	0.323
DIM2E649A: DIM2 with mutation in the BAH1 domain (E649A) (protein, left off: His6, N-terminal, cleaved | MBP, N-terminal, cleaved) MDSPDRSHGGMFIDVPAETMGFQEDYLDMFASVLSQGLAKEGDYAHHQPLPAGKEECLEPIAVATTITPSPDDPQLQLQLELEQQFQTESGLNGVDPAPAPESEDEADLPDGFSDESPDDDFVVQRSKHITVDLPVSTLINPRSTFQRIDENDNLVPPPQSTPERVAVEDLLKAAKAAGKNKEDYIEFELHDFNFYVNYAYHPQEMRPIQLVATKVLHDKYYFDGVLKYGNTKHYVTGMQVLELPVGNYGASLHSVKGQIWVRSKHNAKKEIYYLLKKPAFEYQRYYQPFLWIADLGKHVVDYCTRMVERKREVTLGCFKSDFIQWASKAHGKSKAFQNWRAQHPSDDFRTSVAANIGYIWKEINGVAGAKRAAGDQLFRELMIVKPGQYFRQEVPPGPVVTEGDRTVAATIVTPYIKECFGHMILGKVLRLAGEDAEKEKEVKLAKRLKIENKNATKADTKDDMKNDTATESLPTPLRSLPVQVLEATPIESDIVSIVSSDLPPSENNPPPLTNGSVKPKAKANPKPKPSTQPLHAAHVKYLSQELVNKIKVGDVISTPRDDSSNTDTKWKPTDTDDHRWFGLVQRVHTAKTKSSGRGLNSKSFDVIWFYRPEDTPCCAMKYKWRNELFLSNHCTCQEGHHARVKGNAVLAVHPVDWFGTPESNKGEFFVRQLYESEQRRWITLQKDHLTCYHNQPPKPPTAPYKPGDTVLATLSPSDKFSDPYEVVEYFTQGEKETAFVRLRKLLRRRKVDRQDAPANELVYTEDLVDVRAERIVGKCIMRCFRPDERVPSPYDRGGTGNMFFITHRQDHGRCVPLDTLPPTLRQGFNPLGNLGKPKLRGMDLYCGGGNFGRGLEEGGVVEMRWANDIWDKAIHTYMANTPDPNKTNPFLGSVDDLLRLALEGKFSDNVPRPGEVDFIAAGSPCPGFSLLTQDKKVLNQVKNQSLVASFASFVDFYRPKYGVLENVSGIVQTFVNRKQDVLSQLFCALVGMGYQAQLILGDAWAHGAPQSRERVFLYFAAPGLPLPDPPLPSHSHYRVKNRNIGFLCNGESYVQRSFIPTAFKFVSAGEGTADLPKIGDGKPDACVRFPDHRLASGITPYIRAQYACIPTHPYGMNFIKAWNNGNGVMSKSDRDLFPSEGKTRTSDASVGWKRLNPKTLFPTVTTTSNPSDARMGPGLHWDEDRPYTVQEMRRAQGYLDEEVLVGRTTDQWKLVGNSVSRHMALAIGLKFREAWLGTLYD	marked decrease of the DNA methylation activity	3.26	3.183	3.28
DIM2K362A: DIM2 with H3K9me3-binding site mutation in the RFTS domain (K362A) (protein, left off: His6, N-terminal, cleaved | MBP, N-terminal, cleaved) MDSPDRSHGGMFIDVPAETMGFQEDYLDMFASVLSQGLAKEGDYAHHQPLPAGKEECLEPIAVATTITPSPDDPQLQLQLELEQQFQTESGLNGVDPAPAPESEDEADLPDGFSDESPDDDFVVQRSKHITVDLPVSTLINPRSTFQRIDENDNLVPPPQSTPERVAVEDLLKAAKAAGKNKEDYIEFELHDFNFYVNYAYHPQEMRPIQLVATKVLHDKYYFDGVLKYGNTKHYVTGMQVLELPVGNYGASLHSVKGQIWVRSKHNAKKEIYYLLKKPAFEYQRYYQPFLWIADLGKHVVDYCTRMVERKREVTLGCFKSDFIQWASKAHGKSKAFQNWRAQHPSDDFRTSVAANIGYIWAEINGVAGAKRAAGDQLFRELMIVKPGQYFRQEVPPGPVVTEGDRTVAATIVTPYIKECFGHMILGKVLRLAGEDAEKEKEVKLAKRLKIENKNATKADTKDDMKNDTATESLPTPLRSLPVQVLEATPIESDIVSIVSSDLPPSENNPPPLTNGSVKPKAKANPKPKPSTQPLHAAHVKYLSQELVNKIKVGDVISTPRDDSSNTDTKWKPTDTDDHRWFGLVQRVHTAKTKSSGRGLNSKSFDVIWFYRPEDTPCCAMKYKWRNELFLSNHCTCQEGHHARVKGNEVLAVHPVDWFGTPESNKGEFFVRQLYESEQRRWITLQKDHLTCYHNQPPKPPTAPYKPGDTVLATLSPSDKFSDPYEVVEYFTQGEKETAFVRLRKLLRRRKVDRQDAPANELVYTEDLVDVRAERIVGKCIMRCFRPDERVPSPYDRGGTGNMFFITHRQDHGRCVPLDTLPPTLRQGFNPLGNLGKPKLRGMDLYCGGGNFGRGLEEGGVVEMRWANDIWDKAIHTYMANTPDPNKTNPFLGSVDDLLRLALEGKFSDNVPRPGEVDFIAAGSPCPGFSLLTQDKKVLNQVKNQSLVASFASFVDFYRPKYGVLENVSGIVQTFVNRKQDVLSQLFCALVGMGYQAQLILGDAWAHGAPQSRERVFLYFAAPGLPLPDPPLPSHSHYRVKNRNIGFLCNGESYVQRSFIPTAFKFVSAGEGTADLPKIGDGKPDACVRFPDHRLASGITPYIRAQYACIPTHPYGMNFIKAWNNGNGVMSKSDRDLFPSEGKTRTSDASVGWKRLNPKTLFPTVTTTSNPSDARMGPGLHWDEDRPYTVQEMRRAQGYLDEEVLVGRTTDQWKLVGNSVSRHMALAIGLKFREAWLGTLYD	marked decrease of the DNA methylation activity	1.971	1.588	1.581
